Reference: patent US20250186597A1, “TARGETED IMMUNE ACTIVATION WITH IL-18 IMMUNOCYTOKINES” (BRIGHT PEAK THERAPEUTICS AG, priority 2023, published 2025)

Assays:
Experiment in all cases: cell-based or functional assay
[1] = target: IL-18 polypeptide C147 (V11I, C38A, K53A, D54A, C76A, C127A) (human) (UniProt Q14116)
[2] = target: IL-18 polypeptide C148 (F2A, V11I, C38A, K53A, C76A, C127A) (human) (UniProt Q14116)
[3] = target: IL-18 polypeptide C149 (V11I, E31A, C38A, K53A, C76A, C127A) (human) (UniProt Q14116)
[4] = target: IL-18 polypeptide C150 (V11I, T34A, C38A, K53A, C76A, C127A) (human) (UniProt Q14116)
[5] = target: IL-18 polypeptide C152 (V11I, S36A, C38A, K53A, C76A, C127A) (human) (UniProt Q14116)
[6] = target: IL-18 polypeptide C154 (V11I, E31A, D37A, C38A, K53A, C76A, C127A) (human) (UniProt Q14116)
[7] = target: IL-18 polypeptide C158 (V11I, C38A, K53A, C76A, G108A, C127A) (human) (UniProt Q14116)
[8] = target: IL-18 polypeptide C159 (V11I, C38A, K53A, C76A, H109A, C127A) (human) (UniProt Q14116)
[9] = target: IL-18 polypeptide C162 (K8E, V11I, C38A, C76A, Q103R, C127A) (human) (UniProt Q14116)
[10] = target: IL-18 polypeptide C164 (V11I, C38A, S55H, C76A, C127A) (human) (UniProt Q14116)
[11] = target: IL-18 polypeptide C166 (V11I, C38A, S55T, C76A, C127A) (human) (UniProt Q14116)
[12] = target: IL-18 polypeptide of SEQ ID NO: 34 (E06K, K53A, S55A) (human) (UniProt Q14116)
[13] = target: IL-18 polypeptide of SEQ ID NO: 35 (Y01G, F02A, E06K, M51G, K53A, D54A, S55A, T63A) (human) (UniProt Q14116)
[14] = target: IL-18 polypeptide of SEQ ID NO: 37 (S55A) (human) (UniProt Q14116)
[15] = target: IL-18 polypeptide of SEQ ID NO: 41 (K53A, S55A) (human) (UniProt Q14116)
[16] = target: IL-18 polypeptide of SEQ ID NO: 43 (E06K, K53A, S55A, Y01G) (human) (UniProt Q14116)
[17] = target: IL-18 polypeptide of SEQ ID NO: 48 (C38S, C68S, C76S, C127S, K70C) (human) (UniProt Q14116)
[18] = target: IL-18 polypeptide of SEQ ID NO: 5 (E6K, V11I, C38A, K53A, T63A, C68A, C76A, M86C, C127A) (human) (UniProt Q14116)
[19] = target: IL-18 polypeptide of SEQ ID NO: 52 (E06K, T63A) (human) (UniProt Q14116)
[20] = target: IL-18 polypeptide of SEQ ID NO: 54 (E06K, K53A, C38S, C68S, C76S, C127S, K70C) (human) (UniProt Q14116)
[21] = target: IL-18 polypeptide of SEQ ID NO: 59 (E6K, C38A, K53A) (human) (UniProt Q14116)
[22] = target: native IL-18 wild-type (SEQ ID NO: 1) (human) (UniProt Q14116)

- IC50 of inhibition by IL-18BP of IFNγ stimulation in NK92 cells [1]: 47.6 nM
- IC50 of inhibition by IL-18BP of IFNγ stimulation in NK92 cells [2]: 5.05 nM
- IC50 of inhibition by IL-18BP of IFNγ stimulation in NK92 cells [3]: 1.17 nM
- IC50 of inhibition by IL-18BP of IFNγ stimulation in NK92 cells [4]: 21.3 nM
- IC50 of inhibition by IL-18BP of IFNγ stimulation in NK92 cells [5]: 7.85 nM
- IC50 of inhibition by IL-18BP of IFNγ stimulation in NK92 cells [6]: 3.71 nM
- IC50 of inhibition by IL-18BP of IFNγ stimulation in NK92 cells [7]: 3.98 nM
- IC50 of inhibition by IL-18BP of IFNγ stimulation in NK92 cells [8]: 1.81 nM
- IC50 of inhibition by IL-18BP of IFNγ stimulation in NK92 cells [9]: 7.29 nM
- IC50 of inhibition by IL-18BP of IFNγ stimulation in NK92 cells [10]: 0.456 nM
- IC50 of inhibition by IL-18BP of IFNγ stimulation in NK92 cells [11]: 0.44 nM
- IC50 of inhibition by IL-18BP of IFNγ stimulation in NK92 cells [12]: 229 nM
- IC50 of inhibition by IL-18BP of IFNγ stimulation in NK92 cells [13]: > 55 nM
- IC50 of inhibition by IL-18BP of IFNγ stimulation in NK92 cells [14]: 4.46 nM
- IC50 of inhibition by IL-18BP of IFNγ stimulation in NK92 cells [15]: 37.3 nM
- IC50 of inhibition by IL-18BP of IFNγ stimulation in NK92 cells [16]: 27.8 nM
- IC50 of inhibition by IL-18BP of IFNγ stimulation in NK92 cells [17]: 0.114 nM
- IC50 of inhibition by IL-18BP of IFNγ stimulation in NK92 cells [18]: 62.4 nM
- IC50 of inhibition by IL-18BP of IFNγ stimulation in NK92 cells [19]: 47.1 nM
- IC50 of inhibition by IL-18BP of IFNγ stimulation in NK92 cells [20]: 23.5 nM
- IC50 of inhibition by IL-18BP of IFNγ stimulation in NK92 cells [21]: 654 nM
- IC50 of IL-18BP-mediated inhibition of IFNγ secretion by NK92 cells [22]: 0.781 nM
- IC50 of inhibition by IL-18BP of IFNγ stimulation in NK92 cells [22]: 1.47 nM
Substance: Fc fused human IL-18 binding protein isoform a (IL-18BPa; R&D systems, Cat #119-BP) (from UniProt O95998 31-194) (Fc fusion)
